Laboratory results published in PMC9482650, “Quantitative fragmentomics allow affinity mapping of interactomes” (Nature Communications, 2022).

Key:
Experiment in all cases: holdup assay
Set-up in all cases: key: below the threshold = too weak to quantify, mostly under pKd 3.1 to 4
Settings in all cases: plain residues with an end cap or a label only (N-terminal biotin on a linker: ttds)
[1] = target: T1, APBA3_1, O96018
T1 sequence (O96018 389-490, limits assumed, looked up): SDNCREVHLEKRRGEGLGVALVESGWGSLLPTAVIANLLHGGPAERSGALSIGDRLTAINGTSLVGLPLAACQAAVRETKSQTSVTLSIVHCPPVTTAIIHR

[2] = target: T2, CARD11, Q9BXL7
T2 sequence (Q9BXL7 662-765, limits assumed, looked up): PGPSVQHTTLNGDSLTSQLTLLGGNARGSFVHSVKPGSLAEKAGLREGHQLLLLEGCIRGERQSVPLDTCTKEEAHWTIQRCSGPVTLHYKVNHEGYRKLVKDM

[3] = target: DLG2_2, Q15700
DLG2_2, Q15700, sequence (Q15700 189-283): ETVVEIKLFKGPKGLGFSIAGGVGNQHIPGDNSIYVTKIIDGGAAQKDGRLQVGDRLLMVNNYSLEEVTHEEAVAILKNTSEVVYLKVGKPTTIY

[4] = target: DLG4_3, P78352
DLG4_3, P78352, sequence (P78352 306-403): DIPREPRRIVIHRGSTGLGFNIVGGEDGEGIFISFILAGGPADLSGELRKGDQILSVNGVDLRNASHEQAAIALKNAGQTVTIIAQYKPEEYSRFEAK

[5] = target: T3, DVL3, Q92997
T3 sequence (Q92997 244-331, limits assumed, looked up): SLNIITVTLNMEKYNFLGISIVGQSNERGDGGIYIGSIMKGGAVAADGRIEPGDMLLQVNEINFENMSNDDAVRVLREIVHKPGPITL

[6] = target: FRMPD3, Q5JV73
FRMPD3, Q5JV73, sequence (Q5JV73 12-100): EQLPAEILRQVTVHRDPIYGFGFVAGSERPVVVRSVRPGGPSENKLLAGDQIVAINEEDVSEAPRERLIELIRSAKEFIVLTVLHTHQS

[7] = target: GOPC, Q9HD26
[8] = target: GORASP2, Q9H8Y8
[9] = target: T4, GRIP1_5, Q9Y3R0
T4 sequence (Q9Y3R0 568-668, limits assumed, looked up): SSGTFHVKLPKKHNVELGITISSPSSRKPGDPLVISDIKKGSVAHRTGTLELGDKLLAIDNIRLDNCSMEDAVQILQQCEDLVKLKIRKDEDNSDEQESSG

[10] = target: GRIP2_4, Q9C0E4
GRIP2_4, Q9C0E4, sequence (Q9C0E4 446-548): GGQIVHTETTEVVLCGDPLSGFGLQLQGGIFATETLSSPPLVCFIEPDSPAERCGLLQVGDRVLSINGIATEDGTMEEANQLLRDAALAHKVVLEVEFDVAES

[11] = target: GRIP2_6, Q9C0E4
GRIP2_6, Q9C0E4, sequence (Q9C0E4 648-740): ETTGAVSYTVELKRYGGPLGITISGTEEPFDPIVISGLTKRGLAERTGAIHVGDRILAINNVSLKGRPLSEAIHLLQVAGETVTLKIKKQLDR

[12] = target: HTRA1, Q92743
HTRA1, Q92743, sequence (Q92743 360-477): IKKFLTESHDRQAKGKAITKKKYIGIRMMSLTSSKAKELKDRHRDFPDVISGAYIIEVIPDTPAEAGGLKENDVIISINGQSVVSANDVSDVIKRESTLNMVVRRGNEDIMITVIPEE

[13] = target: HTRA2, O43464
HTRA2, O43464, sequence (O43464 355-458): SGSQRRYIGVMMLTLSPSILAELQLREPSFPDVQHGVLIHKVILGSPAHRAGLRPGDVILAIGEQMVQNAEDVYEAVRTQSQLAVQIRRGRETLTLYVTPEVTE

[14] = target: T5, HTRA3, P83110
T5 sequence (P83110 354-453, limits assumed, looked up): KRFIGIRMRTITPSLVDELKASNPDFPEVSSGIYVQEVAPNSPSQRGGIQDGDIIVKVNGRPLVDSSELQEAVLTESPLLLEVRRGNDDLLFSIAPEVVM

[15] = target: Inadl_6, Q8NI35
Inadl_6, Q8NI35, sequence (Q8NI35 1058-1167): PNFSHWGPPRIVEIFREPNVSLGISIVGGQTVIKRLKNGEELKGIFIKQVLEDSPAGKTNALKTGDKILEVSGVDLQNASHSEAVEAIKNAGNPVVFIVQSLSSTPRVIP

[16] = target: LAP2, Q96RT1
LAP2, Q96RT1, sequence (Q96RT1 other isoform, or with tags, fused parts or gaps): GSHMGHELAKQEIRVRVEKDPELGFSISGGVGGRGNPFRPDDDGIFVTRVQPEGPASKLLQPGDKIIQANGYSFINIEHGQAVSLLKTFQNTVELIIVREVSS

[17] = target: LNX1_1, Q8TBB1
LNX1_1, Q8TBB1, sequence (Q8TBB1 261-371): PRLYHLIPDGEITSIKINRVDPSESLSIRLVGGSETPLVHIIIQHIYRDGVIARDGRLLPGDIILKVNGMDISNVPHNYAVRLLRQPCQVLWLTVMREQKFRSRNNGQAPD

[18] = target: LNX1_2, Q8TBB1
LNX1_2, Q8TBB1, sequence (Q8TBB1 371-470): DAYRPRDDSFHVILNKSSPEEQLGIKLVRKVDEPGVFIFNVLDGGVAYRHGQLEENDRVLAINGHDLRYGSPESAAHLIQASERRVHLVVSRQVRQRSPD

[19] = target: T6, LNX2_3, Q8N448
T6 sequence (Q8N448 463-564, limits assumed, looked up): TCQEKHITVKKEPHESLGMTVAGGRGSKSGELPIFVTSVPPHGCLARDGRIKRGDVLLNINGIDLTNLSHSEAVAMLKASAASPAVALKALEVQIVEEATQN

[20] = target: T7, LRRC7, Q96NW7
T7 sequence (Q96NW7 1440-1537, limits assumed, looked up): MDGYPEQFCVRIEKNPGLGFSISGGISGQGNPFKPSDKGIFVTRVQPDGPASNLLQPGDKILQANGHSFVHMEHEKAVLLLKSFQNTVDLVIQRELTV

[21] = target: MAGI3_2, Q5TCQ9
MAGI3_2, Q5TCQ9, sequence (Q5TCQ9 398-503): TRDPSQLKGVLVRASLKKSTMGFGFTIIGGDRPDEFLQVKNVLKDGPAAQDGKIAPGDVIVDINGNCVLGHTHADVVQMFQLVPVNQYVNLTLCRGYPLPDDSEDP

[22] = target: T8, MPP7, Q5T2T1
T8 sequence (Q5T2T1 134-230, limits assumed, looked up): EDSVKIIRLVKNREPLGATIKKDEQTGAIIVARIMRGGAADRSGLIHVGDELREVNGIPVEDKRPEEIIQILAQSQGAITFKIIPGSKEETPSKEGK

[23] = target: NHERF4_1, Q86UT5-2
NHERF4_1, Q86UT5-2, sequence (Q86UT5 other isoform, or with tags, fused parts or gaps): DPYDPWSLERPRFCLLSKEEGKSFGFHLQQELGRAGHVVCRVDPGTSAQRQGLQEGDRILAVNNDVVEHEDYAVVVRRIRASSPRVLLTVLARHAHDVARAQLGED

[24] = target: PDZRN4_1, Q6ZMN7
PDZRN4_1, Q6ZMN7, sequence (Q6ZMN7 213-318): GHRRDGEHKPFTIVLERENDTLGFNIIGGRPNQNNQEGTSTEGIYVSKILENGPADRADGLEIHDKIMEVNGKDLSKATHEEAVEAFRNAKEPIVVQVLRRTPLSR

[25] = target: T9, SNTB1, Q13884
T9 sequence (Q13884 107-205, limits assumed, looked up): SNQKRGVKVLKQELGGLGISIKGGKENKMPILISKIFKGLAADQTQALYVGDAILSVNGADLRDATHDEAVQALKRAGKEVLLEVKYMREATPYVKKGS

[26] = target: TJP1_3, Q07157
TJP1_3, Q07157, sequence (Q07157 416-512): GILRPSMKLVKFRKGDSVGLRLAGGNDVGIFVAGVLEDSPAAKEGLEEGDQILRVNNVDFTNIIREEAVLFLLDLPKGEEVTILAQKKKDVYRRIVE

[27] = target: T10, TJP3_3, O95049
T10 sequence (O95049 375-456, limits assumed, looked up): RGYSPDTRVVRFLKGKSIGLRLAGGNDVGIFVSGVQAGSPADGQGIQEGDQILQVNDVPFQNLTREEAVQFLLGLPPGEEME

PRVKPQRSKV [PPP1R13L, Q8WUF5]
pKd [1]: below the threshold
pKd [2]: below the threshold
pKd [3]: below the threshold
pKd [4]: below the threshold
pKd [5]: below the threshold
pKd [6]: below the threshold
pKd [7]: 3.95
pKd [8]: below the threshold
pKd [9]: 3.65
pKd [10]: below the threshold
pKd [11]: below the threshold
pKd [12]: below the threshold
pKd [13]: below the threshold
pKd [14]: below the threshold
pKd [15]: below the threshold
pKd [16]: below the threshold
pKd [17]: below the threshold
pKd [18]: below the threshold
pKd [19]: below the threshold
pKd [20]: below the threshold
pKd [21]: 4.07
pKd [22]: below the threshold
pKd [23]: below the threshold
pKd [24]: below the threshold
pKd [25]: 3.65
pKd [26]: below the threshold
pKd [27]: below the threshold

SKPTRRETEV [HPV35-E6, P27228]
pKd [1]: below the threshold
pKd [2]: below the threshold
pKd [3]: 5.27
pKd [4]: 5.2
pKd [5]: below the threshold
pKd [6]: below the threshold
pKd [7]: below the threshold
pKd [8]: 3.82
pKd [9]: below the threshold
pKd [10]: below the threshold
pKd [11]: below the threshold
pKd [12]: below the threshold
pKd [13]: below the threshold
pKd [14]: below the threshold
pKd [15]: below the threshold
pKd [16]: 3.69
pKd [17]: below the threshold
pKd [18]: below the threshold
pKd [19]: below the threshold
pKd [20]: 3.59
pKd [21]: 5.39
pKd [22]: below the threshold
pKd [23]: below the threshold
pKd [24]: 4.38
pKd [25]: 4.68
pKd [26]: below the threshold
pKd [27]: below the threshold
